Experimental findings from paper PMC5344419, “The structure of FKBP38 in complex with the MEEVD tetratricopeptide binding-motif of Hsp90” (PLoS ONE, 2017) are described below.

Entries after “also recorded” stand apart in the source; their conditions may differ.

This data set concerns yeast Hsp90. Put plainly: ATPase activity of yeast Hsp90. It counts as biochemical. The note with it: ATPase assay, 5-molar excess of FKBP^92-380 over Hsp90 (Fig 7).

B1: FKBP^92-380: fragment containing both the immunophilin and TPR domain (protein)
chain: EWLDILGNGLLRKKTLVPGPPGSSRPVKGQVVTVHLQTSLENGTRVQEEPELVFTLGDCDVIQALDLSVPLMDVGETAMVTADSKYCYGPQGRSPYIPPHAALCLEVTLKTAVDGPDLEMLTGQERVALANRKRECGNAHYQRADFVLAANSYDLAIKAITSSAKVDMTFEEEAQLLQLKVKCLNNLAASQLKLDHYRAALRSCSLVLEHQPDNIKALFRKGKVLAQQGEYSEAIPILRAALKLEPSNKTIHAELSKLVKKHAAQRSTETALYRKMLGNPSRLPAKCPG
modifications: left off: His6 (from the vector pDMXV4), C-terminal, kept
notes: fragment containing both the immunophilin and TPR domain
Regarding B1, the “effect on ATPase activity of Hsp90” value was “did not substantially alter”.

B2: FKBP8: immunophilin with N-terminal glutamate rich region, PPIase domain and tetratricopeptide domain; construct not specified at the place (protein)
chain: MASCAEPSEPSAPLPAGVPPLEDFEVLDGVEDAEGEEEEEEEEEEEDDLSELPPLEDMGQPPAEEAEQPGALAREFLAAMEPEPAPAPAPEEWLDILGNGLLRKKTLVPGPPGSSRPVKGQVVTVHLQTSLENGTRVQEEPELVFTLGDCDVIQALDLSVPLMDVGETAMVTADSKYCYGPQGRSPYIPPHAALCLEVTLKTAVDGPDLEMLTGQERVALANRKRECGNAHYQRADFVLAANSYDLAIKAITSSAKVDMTFEEEAQLLQLKVKCLNNLAASQLKLDHYRAALRSCSLVLEHQPDNIKALFRKGKVLAQQGEYSEAIPILRAALKLEPSNKTIHAELSKLVKKHAAQRSTETALYRKMLGNPSRLPAKCPG
modifications: left off: His6, C-terminal, kept
notes: immunophilin with N-terminal glutamate rich region, PPIase domain and tetratricopeptide domain; construct not specified at the place
In the case of B2, the “effect on ATPase activity of Hsp90” value is recorded as “did not substantially influence; also recorded: did not show any substantial effect”.
